In patent publication US20060067919A1:

Target: truncated APC mutant in SW480 cells (human) (UniProt P25054)
Test: cell-based or functional assay

Sequence of UniProt P25054 (P25054 2-1337, change not shown): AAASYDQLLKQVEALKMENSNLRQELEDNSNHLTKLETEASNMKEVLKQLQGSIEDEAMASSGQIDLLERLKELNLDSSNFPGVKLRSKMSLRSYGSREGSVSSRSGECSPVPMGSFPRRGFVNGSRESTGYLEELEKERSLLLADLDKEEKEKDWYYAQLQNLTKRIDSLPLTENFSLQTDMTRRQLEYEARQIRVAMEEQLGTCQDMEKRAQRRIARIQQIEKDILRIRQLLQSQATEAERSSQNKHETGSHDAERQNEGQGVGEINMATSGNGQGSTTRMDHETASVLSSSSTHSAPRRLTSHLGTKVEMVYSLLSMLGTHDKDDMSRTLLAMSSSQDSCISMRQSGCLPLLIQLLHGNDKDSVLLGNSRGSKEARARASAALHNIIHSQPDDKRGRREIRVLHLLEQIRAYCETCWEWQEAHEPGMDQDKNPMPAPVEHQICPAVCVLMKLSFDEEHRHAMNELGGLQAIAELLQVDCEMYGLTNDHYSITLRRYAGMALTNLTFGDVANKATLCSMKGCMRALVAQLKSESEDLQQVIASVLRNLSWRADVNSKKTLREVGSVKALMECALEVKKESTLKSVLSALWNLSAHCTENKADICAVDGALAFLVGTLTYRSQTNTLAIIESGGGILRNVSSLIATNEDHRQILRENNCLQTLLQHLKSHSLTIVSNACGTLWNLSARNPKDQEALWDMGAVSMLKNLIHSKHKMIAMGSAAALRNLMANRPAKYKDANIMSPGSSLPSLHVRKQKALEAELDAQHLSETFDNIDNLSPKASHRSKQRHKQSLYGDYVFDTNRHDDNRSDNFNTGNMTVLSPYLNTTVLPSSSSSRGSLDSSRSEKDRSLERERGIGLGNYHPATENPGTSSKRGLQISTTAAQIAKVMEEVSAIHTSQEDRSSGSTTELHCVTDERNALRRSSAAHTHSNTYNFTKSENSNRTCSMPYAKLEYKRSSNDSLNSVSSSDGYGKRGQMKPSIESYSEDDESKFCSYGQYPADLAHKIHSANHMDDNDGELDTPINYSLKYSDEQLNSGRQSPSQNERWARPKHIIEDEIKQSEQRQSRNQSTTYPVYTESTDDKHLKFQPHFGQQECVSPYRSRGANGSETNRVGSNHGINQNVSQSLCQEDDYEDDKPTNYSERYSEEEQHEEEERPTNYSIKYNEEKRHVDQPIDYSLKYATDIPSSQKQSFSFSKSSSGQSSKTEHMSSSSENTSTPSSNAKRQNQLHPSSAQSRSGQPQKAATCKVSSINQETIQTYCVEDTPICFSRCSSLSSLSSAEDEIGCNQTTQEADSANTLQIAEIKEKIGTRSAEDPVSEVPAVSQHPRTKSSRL

| Substance | migration of SW480 cells relative to parental or Mock cells (% of parental or Mock cells) | decrease of migration of SW480 cells [% decrease] |
| --- | --- | --- |
| Asef-ABR expressed in cells from a plasmid (from UniProt Q9NR80 73-126) | 50 | – |
| Asef-ΔDH (mutant that lacks the DH domain (GEF domain) of Asef) (from UniProt Q9NR80 1-619) | – | 40 |
